Target: Gal4-SNAP-VP16 labeled with SNAP-Surface-649 (S. cerevisiae | herpes simplex virus) (UniProt P04386)
Assay: colocalization single-molecule spectroscopy

Mediator complex with Med7-HA-SNAP labeled with SNAP-Surface-549 (from UniProt Q08278 1-222)
duration of individual binding events (at 10 nM Gal4-VP16^649): 1 s
